Paper doi:10.1101/2022.01.13.476221
* marks the point of attachment. Biotin = O=C1N[C@H]2[C@H](CS[C@H]2CCCCC(=O)*)N1

Experiments:
[1] = biological target: T1, unphosphorylated human MST2-FL (residues 1-484) (human) (UniProt Q13188)
T1 sequence: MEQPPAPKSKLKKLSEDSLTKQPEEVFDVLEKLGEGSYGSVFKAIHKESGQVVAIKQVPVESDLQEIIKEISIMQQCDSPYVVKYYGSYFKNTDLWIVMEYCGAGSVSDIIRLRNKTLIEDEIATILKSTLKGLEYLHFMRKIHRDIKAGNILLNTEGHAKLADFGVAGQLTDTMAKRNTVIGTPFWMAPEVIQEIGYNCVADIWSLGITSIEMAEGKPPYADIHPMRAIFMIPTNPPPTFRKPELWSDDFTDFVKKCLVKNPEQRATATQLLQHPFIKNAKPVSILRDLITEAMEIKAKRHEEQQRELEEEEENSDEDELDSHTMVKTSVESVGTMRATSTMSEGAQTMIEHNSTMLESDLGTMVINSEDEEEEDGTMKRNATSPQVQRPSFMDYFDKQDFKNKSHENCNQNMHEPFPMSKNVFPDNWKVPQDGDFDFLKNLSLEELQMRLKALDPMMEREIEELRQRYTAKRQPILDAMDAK

[2] = biological target: T2, unphosphorylated human MST2-KL (kinase-linker, residues 1-433) (human) (UniProt Q13188)
T2 sequence: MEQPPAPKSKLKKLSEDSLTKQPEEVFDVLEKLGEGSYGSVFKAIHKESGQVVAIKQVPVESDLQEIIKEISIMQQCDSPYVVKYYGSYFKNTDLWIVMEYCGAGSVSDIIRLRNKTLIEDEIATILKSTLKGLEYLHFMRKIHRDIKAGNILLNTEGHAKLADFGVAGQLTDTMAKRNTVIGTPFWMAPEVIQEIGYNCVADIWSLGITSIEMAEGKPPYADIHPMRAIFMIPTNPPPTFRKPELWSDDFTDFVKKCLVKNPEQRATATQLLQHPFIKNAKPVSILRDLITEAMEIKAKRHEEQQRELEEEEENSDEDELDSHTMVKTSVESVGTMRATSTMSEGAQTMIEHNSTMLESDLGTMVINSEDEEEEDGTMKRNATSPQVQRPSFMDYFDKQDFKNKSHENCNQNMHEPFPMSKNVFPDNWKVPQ

[3] = biological target: T3, unphosphorylated human MST2-K (kinase domain, residues 1-314) (human) (UniProt Q13188)
T3 sequence: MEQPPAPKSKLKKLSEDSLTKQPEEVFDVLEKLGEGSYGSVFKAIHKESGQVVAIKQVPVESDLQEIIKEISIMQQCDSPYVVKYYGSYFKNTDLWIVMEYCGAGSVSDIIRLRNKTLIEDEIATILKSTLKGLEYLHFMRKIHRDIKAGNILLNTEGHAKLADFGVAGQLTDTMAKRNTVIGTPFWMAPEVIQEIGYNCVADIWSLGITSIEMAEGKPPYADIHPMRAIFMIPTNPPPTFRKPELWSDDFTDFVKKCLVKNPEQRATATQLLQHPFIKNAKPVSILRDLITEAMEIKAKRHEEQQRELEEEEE

Km^app (peptide), radiometric kinase assay, steady state, 30°C [1]: 139 µM
Km^app (peptide), radiometric kinase assay, steady state, 30°C [2]: 804 µM
Km^app (peptide), radiometric kinase assay, steady state, 30°C [3]: 625 µM
B1: biotinylated peptide substrate Biotin-…-NH2 (peptide)
peptide: Biotin-GGGENWYNTLKRKK-NH2
SMILES: CC(C)C[C@H](NC(=O)[C@@H](NC(=O)[C@H](CC(N)=O)NC(=O)[C@H](Cc1ccc(O)cc1)NC(=O)[C@H](Cc1c[nH]c2ccccc12)NC(=O)[C@H](CC(N)=O)NC(=O)[C@H](CCC(=O)O)NC(=O)CNC(=O)CNC(=O)CNC(=O)CCCC[C@@H]1SC[C@@H]2NC(=O)N[C@@H]21)[C@@H](C)O)C(=O)N[C@@H](CCCCN)C(=O)N[C@@H](CCCNC(=N)N)C(=O)N[C@@H](CCCCN)C(=O)N[C@@H](CCCCN)C(N)=O
